Assay results reported in patent publication US6306580A, “Preparation of human papillomavirus E1 having helicase activity and method therefor” (priority 1999, dated 2001).
Like-named read-outs stand apart in the source and are kept apart here.

Assays:
HPV-11 E1 helicase = molecular target: T1, HPV-11 E1 helicase (Human papillomavirus 11, UniProt P04014); assay: E1 helicase SPA high-throughput assay, inhibition (IC50 curves); type: biochemical, human papillomavirus type 11
T1 construct: made in house; host or cells: SF21 insect cells, recombinant baculovirus (Bac-to-Bac, pFASTBAC1)
From the text: In this assay, the duplex DNA substrate consists of M13 single-stranded DNA (about 8000 bases) to which is annealed a 19 base oligodeoxynucleotide (see FIG. 6). This partial duplex is extended to 24 bases with the incorporation of [^33 P]-labeled dATP by a reaction with the Klenow fragment of DNA polymerase I. Helicase activity results in the separation of this radiolabeled oligo from the M13 DNA. In the absence of a functional helicase, the double-stranded DNA substrate is stable for several hours at the assay temperature.
To detect activity, a second 24-base deoxyoligonucleotide, complementary to the substrate oligo, is added to the reaction mixture in a second step. […]
In the third step, streptavidin-coated SPA beads (Amersham Life Science, code TRKQ7030) are added to the mixture. […] Thus radiolabeled oligo annealed to the biotinylated oligo will be detected, whereas unreacted substrate still hybridized to M13 is not in close proximity to the beads and will not be detected.
In the presence of an inhibitor, less substrate is unwound, so a lower signal is detected. […] The M13 DNA competes with the labeled M13 substrate and inhibits the signal detected. […]
Assay buffer, used for all dilutions, consisted of 20 mM MES, pH 7.0, 10% glycerol, 1.0 mM DTT, and 0.05 mM EDTA. […] Sufficient E1 is used to give approximately 20% unwinding (as determined in Example 9). […]

[1] = test system: partial duplex DNA substrate; conditions: Yang, PNAS (1993), assayed at 32°; cited from earlier work
[2] = molecular target: HPV-11 E2 protein (human papillomavirus type 11) (UniProt P04015); assay: E2-dependent E1 DNA binding assay: E1/E2/ori complex with radiolabeled origin probe, captured with K72 antiserum on protein A-SPA beads, scintillation counting
[3] = test system: partial duplex DNA substrate; assay: Helicase specific activity (unwinding of partial duplex DNA), this work; type: biochemical; conditions: 37°, enzyme concentration greater than substrate
Procedure: The substrate for the analytical helicase assay consisted of a […] oligonucleotide (GTAAAACGACCAGTGCCAAGC) (SEQ ID NO. 11) end-labeled using [^33 P]ATP and polynucleotide kinase, annealed to M13mp18. Combined helicase/ATPase reactions contained 800 or 1600 ng of E1, 2 mM MgCl2, 1 mM ATP, and 1 μM helicase substrate (concentration in nucleotides) in a total volume of 80 μL of helicase assay buffer (20 mM MES, pH 7.0, 1 mM DTT, 0.05 mM EDTA, 10% glycerol). Reactions were incubated for 2 h at 37° and then placed on ice. […]
Helicase activity was quantitated as follows:
A separate reaction mixture, containing no enzyme was heated to 95° for 10 min., and the resulting free substrate oligonucleotide (completely denatured) was detected as described for reaction mixtures. […] Quantitation of unwinding is calculated relative to the boiled sample with background subtracted.
In all cases the enzyme concentration was greater than the substrate concentration and the substrate was partial duplex DNA. […] The SV-40 TAg was also assessed in the literature and V of 50 and 80 % unwinding/μm protein/min were obtained from these groups respectively (Goetz, JBC (1988); Stahl, EMBO (1986)). […]

Molecule: CC[n+]1c(-c2ccccc2)c2cc(N)ccc2c2ccc(N)cc21 [ethidium bromide]
- IC50 (HPV-11 E1 helicase): ~4 µM

Molecule: BPV E1: bovine papillomavirus E1 helicase, literature value (Yang, PNAS 1993)
- Helicase Activity V (% unwinding/μM protein/min) [1]: 2.9 % unwinding/μM protein/min

Molecule: HPV-11 His-E1 protein (wild type) (enzyme)
- signal over background (fold) [2]: 20 to 30 fold

B1: HPV-11 E1: His-tagged E1 helicase of human papillomavirus type 11, low-salt nuclear extraction, Ni affinity purified (SEQ ID NO.26) (protein)
chain: MADDSGTENEGSGCTGWFMVEAIVEHTTGTQISEDEEEEVEDSGYDMVDFIDDRHITQNSVEAQALFNRQEADAHYATVQDLKRKYLGSPYVSPISNVANAVESEISPRLDAIKLTTQPKKVKRRLFETRELTDSGYGYSEVEAATQVEKHGDPENGGDGEERDTGRDIEGEGVEHREAEAVDDSTREHADTSGILELLKCKDIRSTLHGKFKDCFGLSFVDLIRPFKSDRTTCADWVVAGFGIHHSIADAFQKLIEPLSLYAHIQWLTNAWGMVLLVLIRFKVNKSRCTVARTLGTLLNIPENHMLIEPPKIQSGVAALYWFRTGISNASTVIGEAPEWITRQTVIEHSLADSQFKLTEMVQWAYDNDICEESEIAFEYAQRGDFDSNARAFLNSNMQAKYVKDCAIMCRHYKHAEMKKMSIKQWIKYRGTKVDSVGNWKPIVQFLRHQNIEFIPFLSKLKLWLHGTPKKNCIAIVGPPDTGKSCFCMSLIKFLGGTVISYVNSCSHFWLQPLTDAKVALLDDATQPCWTYMDTYMRNLLDGNPMSIDRKHRALTLIKCPPLLVTSNIDISKEEKYKYLHSRVTTFTFPNPFPFDRNGNAVYELSDANWKCFFERLSSSLDIEDSEDEEDGSNSQAFRCVPGSVVRTL
modifications: His tag
- Helicase Activity V (% unwinding/μM protein/min) [3]: 2.5 % unwinding/μM protein/min

B2: HPV-6a E1: His-tagged E1 helicase of human papillomavirus type 6a purified according to the invention (SEQ ID NO.27) (protein)
chain: MADDSGTENEGSGCTGWFMVEAIVQHPTGTQISDDEDEEVEDSGYDMVDFIDDSNITHNSLEAQALFNRQEADTHYATVQDLKRKYLGSPYVSPINTIAEAVESEISPRLDAIKLTRQPKKVKRRLFQTRELTDSGYGYSEVEAGTGTQVEKHGVPENGGDGQEKDTGRDIEGEEHTEAEAPTNSVREHAGTAGILELLKCKDLRAALLGKFKECFGLSFIDLIRPFKSDKTTCLDWVVARFGIHHSISEAFQKLIEPLSLYAHIQWLTNAWGMVLLVLLRFKVNKSRSTVARTLATLLNIPENQMLIEPPKIQSGVAALYWFRTGISNASTVIGEAPEWITRQTVIEHGLADSQFKLTEMVQWAYDNDICEESEIAFEYAQRGDFDSNARAFLNSNMQAKYVKDCATMCRHYKHAEMRKMSIKQWIKHRGSKIEGTGNWKPIVQFLRHQNIEFIPFLTKFKLWLHGTPKKNCIAIVGPPDTGKSYFCMSLISFLGGTVISHVNSSSHFWLQPLVDAKVALLDDATQPCWIYMDTYMRNLLDGNPMSIDRKHKALTLIKCPPLLVTSNIDITKEDKYKYLHTRVTTFTFPNPFPFDRNGNAVYELSNTNWKCFFERLSSSLDIQDSEDEEDGSNSQAFRCVPGTVVRTL
modifications: His tag
- Helicase Activity V (% unwinding/μM protein/min) [3]: 2.3 % unwinding/μM protein/min
